The values below come from patent publication US20180258175A1 (ABLEXIS, published 2018).

Positions count from the first letter of the chain named.

Sequences and labels used below:
B1: CCK-410A (antibody, V domains shown)
VH: EVQLVESGGGLVQPGRSLRLSCTASGFTFGDYAMSWFRQAPGKGLEWVGFIRSKAYGGTTEYAASVKGRFTISRDDTKSIAYLQMNSLKIEDTAVHYCTREGSFGALDIWGQGIMVTVSS
VL: not shown
notes: AlivaMab chimeric IgG, human kappa LC
B2: CCL-338A (antibody, V domains shown)
VH: QVQLQESGPGLVKPSETLSLTCTVSGGSISSYYWSWIRQPPGKGLEWIGYIYYSGTTNYNPSLKSRVTISVDTSKNQFSLKLSSVTAADTAVYYCARALIVGAFAYWGQGTLVTVSS
VL: SYELTQPHSVSVATAQMARITCGGNNIGSKAVHWYQQKPGQDPVLVIYSDSNRPSGIPERFSGSNPGNTATLTISRIEAGDEADYYCQVWDSSSDHRVFGGGTKLTVL
notes: AlivaMab chimeric IgG, human lambda LC
B3: CCL-203A (antibody, V domains shown)
VH: B2 VH with S35N, T56S, V71L, Y94H, A98G, L99R, I100L, V101N, A105D
VL: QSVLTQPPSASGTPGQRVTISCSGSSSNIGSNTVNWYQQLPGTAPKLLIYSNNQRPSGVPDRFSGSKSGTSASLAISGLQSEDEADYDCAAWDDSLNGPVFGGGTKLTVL
notes: as for B2
B4: CCL-349A (antibody, V domains shown)
VH: QVQLQESGPGLVKPSETLSLTCTVSGGSISIYYWNWIRQPPGKGLEWIGYIYYIGSTNYNPSLKSRVTISVDTSKNQFSLKLSSVTAADTAVYYCARGRLTYAFDIWGQGTMVTVSS
VL: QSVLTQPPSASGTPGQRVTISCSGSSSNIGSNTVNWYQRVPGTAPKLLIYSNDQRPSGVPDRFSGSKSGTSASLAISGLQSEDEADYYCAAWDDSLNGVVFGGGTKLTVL
notes: as for B2
B5: CCK-501A (antibody, V domains shown)
VH: EVQLVESGGGLVKPGGSLRLSCAASGFTFSNAWMNWVRQAPGKGLEWVGRINSKTDGGTTDYAAPVKGRFTISRDDSKTTLYLQMNSLKTEDTAVYYCTTDGVYPDVFDIWGQGTMVTVSS
VL: not shown
notes: as for B1
B6: CCL-324A (antibody, V domains shown)
VH: B4 VH with I31S, N35S, I51V, I54S, I69T, S83R, G98D, T101G, Y102I
VL: SSELTQDPAVSVALGQTVRITCQGDSLRSYYASWYQQKPGQAPILVIYGKNNRPSGIPDRFSGSSSGNTASLTITGAQAEDEADYYCNSQDNSGNHLVVFGRGTKLTVL
notes: as for B2
B7: CCL-201A (antibody, V domains shown)
VH: QVQLQESGPGLVKPSETLSLTCTVSGGSISSYYWIWIRQPPGKGLEWIGYFYYSGSTNYNPSLKSRVTISVGTSKNQFSLKLSSVTAADTAVYYCARSRLGSIFDYWGQGTLVTVSS
VL: not shown
notes: as for B2
B8: CCL-208A (antibody, V domains shown)
VH: QVQLVQSGAEVKKPGASVKVSCKASGYTFTDYYMHWVRQAPGQGLEWMGWINPNSGGANYAQKFQGRVTMTRDTSISIAYMELSRLRSDDTAIYYCARGRLTFFDYWGQGTLVTVSS
VL: not shown
notes: as for B2
B9: CCL-333A (antibody, V domains shown)
VH: EVQLVESGGGLVKPGGSLRLSCAASGFTFSYYSMNWVRQAPGKGLEWVSSISDSSDYIYYADSVKGRFTISRDNAKNSLYLQMNSLRAEDTAVYYCARGGLRFDYWGQGTLVTVSS
VL: not shown
notes: as for B2
B10: CCL-209A (antibody, V domains shown)
VH: QVQLQESGPGLVKPSETLSLTCTVSGGSISSFYWSWIRQSPGRGLEWIGYIFYSGSTKYNPSLMSRVTISADTSKNQFSLKLSSVTAADTAVYYCARGRLGNYFDYWGQGTLVTVSS
VL: not shown
notes: as for B2
B11: CCK-408A (antibody, V domains shown)
VH: QVQLQESGPGLVKPSETLSLTCTVSGGSISSYYWSWIRQPAGKGLEWIGRIYTSGSTNYHPSFKSRVTMSVDTSKTQFSLKLSSLTAADTAVYYCARGGITWFDPWGQGTLVTVSS
VL: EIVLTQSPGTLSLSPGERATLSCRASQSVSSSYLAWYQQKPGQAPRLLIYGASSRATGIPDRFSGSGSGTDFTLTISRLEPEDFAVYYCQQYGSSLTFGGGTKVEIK
notes: as for B1
B12: CCK-434A (antibody, V domains shown)
VH: EVQLVESGGGLVQPGGSLRLSCAASGFTFSSYDMHWVRQATGKGLEWVSAIGTAGDTYYPGSVKGRFTISRENAKNSLYLQMNSLRAGDTAVYYCARGHIVVVTAMDYWGQGTLVTVSS
VL: not shown
notes: as for B1
B13: CCK-522A (antibody, V domains shown)
VH: QITLKESGPTLVKPTQTLTLTCTFSGFSLSTSGVGVGWIRQPPGKALEWLALIYWNDDKRYSPSLKSRLTITKDTSKNQVVLTMTNMDPVDTATYYCAHQERRSGWSFDYWGQGTLVSVSS
VL: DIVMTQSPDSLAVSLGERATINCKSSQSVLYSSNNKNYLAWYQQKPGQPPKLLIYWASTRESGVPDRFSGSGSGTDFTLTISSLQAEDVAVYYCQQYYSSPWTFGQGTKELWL
notes: as for B1
B14: CCL-329A (antibody, V domains shown)
VH: QVQPQESGPGLVKPSETLSLTCTVSGGSISGYYWSWIRQPAGTGLEWIGRIYTSGSTNYNSSLKSRVTMSVDTSKNQFSLKLSSVTAADTAVYYCARERMATIFDYWGQGTLVTVSS
VL: not shown
notes: as for B2
B15: CCL-313A (antibody, V domains shown)
VH: QVQLQESGPGLVKPSETLSLTCTVSGGSISSYYWSWIRQPPGKGLEWIGYIYYTGSTNYNPSLKSRVTISVDTSKNQFSLKLSSVTAADTAVYYCARGWWELTFFDYWGQGTLVTVSS
VL: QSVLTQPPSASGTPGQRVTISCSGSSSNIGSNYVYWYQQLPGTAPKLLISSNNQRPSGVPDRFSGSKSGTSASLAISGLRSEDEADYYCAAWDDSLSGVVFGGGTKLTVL
notes: as for B2
B16: CCL-231A (antibody, V domains shown)
VH: QVQLQESGPGLVKPSETLSLTCTVSGGSISSYYWSWIRQPAGKGLEWIGRIYTSGNTNYNPSLKSRVTMSLDTSKNQFSLKLSSVTAADTAVYYCARVGAIGVDAFDIWGQGTMVTVSS
VL: QSALTQPASVSGSPGQSITISCTGTSSDVGSYNLVSWYQQHPGKAPKLMIYEGSKRPSGVSNRFSGSKSGNTASLTISGLQAEDEADYYCCSYAGSSTFVVFGGGTKLTVL
notes: as for B2
B17: CCL-206A (antibody, V domains shown)
VH: B4 VH with I31S, N35T, I54S, S56I, I69M, V71M, K81R, L100I, T101I, Y102G
VL: not shown
notes: as for B2
B18: CCL-249A (antibody, V domains shown)
VH: QVQLQESGPGLVKPSETLSLTCTVSGGSISSYYWSWIRQPAGKGLEWVGRLFTSGSTNYNPSLKSRVTMSVDTSKNQFSLKLSSVIAADTAVYYCARERLTGYFDYWGQGTLVTVSS
VL: not shown
notes: as for B2
B19: CCL-327A (antibody, V domains shown)
VH: B18 VH with T23S, Y33H, V48I, L51I, F52Y, S54G, I86T
VL: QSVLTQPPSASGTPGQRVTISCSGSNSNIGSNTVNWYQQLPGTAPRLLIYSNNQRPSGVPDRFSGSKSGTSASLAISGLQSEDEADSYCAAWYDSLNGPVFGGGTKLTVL
notes: as for B2
B20: CCL-217A (antibody, V domains shown)
VH: B18 VH with V48I, L51I, F52Y, T53S, S56T, D72E, K81N, I86T, L100I, Y103H
VL: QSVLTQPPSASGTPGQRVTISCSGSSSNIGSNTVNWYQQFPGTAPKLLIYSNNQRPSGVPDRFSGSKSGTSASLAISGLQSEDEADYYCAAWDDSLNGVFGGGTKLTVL
notes: as for B2
B21: CCL-215A (antibody, V domains shown)
VH: EVQLVESGGGLVQPGGSLRLSCAASGFTFSSYSMNWVRQAPGKGLEWVSYISSSSSTIYYADSVKGRFTISSDNAKNSLYLQMDSLRDEDTAVYYCARDRLGIPFDYWGQGTLVTVSS
VL: not shown
notes: as for B2
B22: CCL-225A (antibody, V domains shown)
VH: EVQLVESGGGLVKPGGSLRLSCAASGFTFSSYNMNWVRQAPGKGLEWVSSISSSSNYIYYADSVKGRFTISGDTAKNSLFLQMISLRVEDTAVYYCARDRLGIPFDYWGQGSLVTVSS
VL: not shown
notes: as for B2
B23: CCL-310A (antibody, V domains shown)
VH: EVQLVESGGGLVQPGGSLRLSCAASGFTFSNYWMRWVRQAPGKGLEWVANIKQDGSEKYYVDSVKGRFTISRDNAKYSLYLQMNSLRAEDTAVYYCARDRLGIFDYWGQGTLVTVSS
VL: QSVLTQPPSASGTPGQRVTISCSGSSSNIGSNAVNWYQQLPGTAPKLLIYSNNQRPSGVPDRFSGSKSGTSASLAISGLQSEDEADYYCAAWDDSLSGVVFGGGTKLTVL
B24: CCL-331A (antibody, V domains shown)
VH: B11 VH with H60N, F63L, T76N, L85V, G98E, I100L, T101R, W102G
VL: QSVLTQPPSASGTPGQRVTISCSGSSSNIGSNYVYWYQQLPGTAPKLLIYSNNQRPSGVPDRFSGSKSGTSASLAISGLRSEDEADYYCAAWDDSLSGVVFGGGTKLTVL
notes: as for B2
B25: CCL-340A (antibody, V domains shown)
VH: EVQLVESGGGLVKPGGSLRLSCAASGFTFSSYSMKWVRQAPVKGLEWVSSISSSSSYIYYGDSVKGRFTISRDNAKNSLYLQMNSLRAEDTAVYYCARERLGRAFDIWGQGTMVTVSS
VL: not shown
notes: as for B2

In one experiment the target is T1, human CD115 extracellular domain (Sino Biological 10161-H08H) (human, UniProt P07333 20-517).
T1 construct: extracellular domain; bought recombinant protein; also called huCD115; hu-CD115
Description: ELISA, supernatant on huCD115. Background: An ELISA detects its analyte on a solid surface through an enzyme-linked reagent.
As to B1, the binding result is recorded as “binds”.

With B2, the binding result is reported as “binds”.

Turning to B3, the binding result is “binds”.

In the case of B4, the binding result is “binds”.

Regarding B5, the binding result is given as “binds”.

On to B6, for which the binding result was “binds”.

Turning to B7, the binding result was “binds”.

For B8, the binding result is listed as “binds”.

Regarding B9, the binding result is on record as “binds”.

For the molecule B10, the binding result is reported as “binds”.

B11: the binding result is given as “binds”.

Regarding B12, the binding result was “binds”.

The target in another experiment is T1, human CD115 extracellular domain (Sino …). In words: competition ELISA, competitor TMR 20A.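 Also: epitope binning by ELISA, anti-huCD115 hybridoma supernatant antibodies tested for binding to huCD115 with the competitor antibody present, loss of binding placing them in the competitor's bin; low signal means same epitope bin as the mouse competitor antibody.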
B13: the “signal vs NO COMP=100” value turned out to be 34%.

The target is the same in a further experiment. Description: competition ELISA, competitor TMR 24A.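 Also: clonal anti-huCD115 hybridoma supernatant antibodies bound with a competitor mouse antibody present, and failure to bind puts a clone in that competitor's epitope bin; low signal means same epitope bin as the mouse competitor antibody.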
For B13, the “signal vs NO COMP=100” value was 33%.

The target is the same in the next experiment. Description: competition ELISA, competitor TMR 44B.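 Also: binding of antibodies from single-clone hybridoma supernatants to huCD115 measured with the competitor antibody present, a drop in signal meaning both share an epitope bin; low signal means same epitope bin as the mouse competitor antibody.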
B13: the “signal vs NO COMP=100” value worked out at 24%.

For a further experiment the target is unchanged. Description: competition ELISA, competitor TMR 95A.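 Also: clonal anti-huCD115 hybridoma supernatants tested for binding while a competitor mouse antibody is present, where failure to bind assigns them to that competitor's epitope bin; low signal means same epitope bin as the mouse competitor antibody.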
Take B13: the “signal vs NO COMP=100” value was found to be 7%.

Another experiment shares this target. In words: competition ELISA, competitor TMR 100A.
In the case of B13, the “signal vs NO COMP=100” value was 67%.

The target is the same in a further experiment. In words: SPR ProteOn, supernatant mAb captured on anti-mouse IgG, Hu CD115 analyte.
As to B14, binding was characterised by a dissociation constant (Kd) of 0.038 nM, the koff turned out to be 4.46e-06 s⁻¹ and the kon amounted to 118000 M⁻¹ s⁻¹.

B15 displayed a Kd of 1.24 nM, a koff of 9.09e-05 s⁻¹ and a kon of 73600 M⁻¹ s⁻¹.

As to B16, binding was characterised by a dissociation constant (Kd) of 0.578 nM, the koff is 4.71e-05 s⁻¹ and the kon is 81000 M⁻¹ s⁻¹.

On to B17, for which the Kd was 0.495 nM, the off-rate (koff) was 2.92e-05 s⁻¹ and the on-rate constant (kon) was 59000 M⁻¹ s⁻¹.

As to B18, the Kd was determined as 0.599 nM, the koff was 8.91e-05 s⁻¹ and the kon worked out at 149000 M⁻¹ s⁻¹.

In turn, B19 displayed a Kd of 1.41 nM, a koff of 0.000189 s⁻¹ and a kon of 133000 M⁻¹ s⁻¹.

B20 gave a Kd of 1.22 nM, an off-rate constant (koff) of 0.00012 s⁻¹ and a kon of 98100 M⁻¹ s⁻¹.

As for B21, binding was characterised by a dissociation constant (Kd) of 0.215 nM, the koff amounted to 1.83e-05 s⁻¹ and the kon was determined as 85300 M⁻¹ s⁻¹.

The molecule B22 showed a Kd of 0.277 nM, an off-rate constant (koff) of 1.38e-05 s⁻¹ and an on-rate (kon) of 50000 M⁻¹ s⁻¹.

Regarding B23, binding was characterised by a dissociation constant (Kd) of 0.079 nM, the koff came to 4.35e-06 s⁻¹ and the on-rate constant (kon) was 50600 M⁻¹ s⁻¹.

In turn, B24 showed a Kd of 0.118 nM, a koff of 2.2e-05 s⁻¹ and a kon of 186000 M⁻¹ s⁻¹.

B25 yielded an equilibrium dissociation constant (Kd) of 0.367 nM, a koff of 2.72e-05 s⁻¹ and a kon of 74100 M⁻¹ s⁻¹.

What is called Kd is the free concentration of one partner at which half of the binding sites on the other are occupied at equilibrium, for simple one-to-one binding. Read a low Kd as tighter binding. Broadly, the koff is the first-order rate constant of dissociation. High values mean a short-lived complex, low ones a long-lived complex. For orientation: kon means a measure of how fast the partners come together. Higher therefore signals faster complex formation.
